These are literature values, as cited in article PMC4016011.

For this data set, the target named is neuronal nitric oxide synthase PDZ (UniProt P29475).
neuronal nitric oxide synthase PDZ, sequence (P29475 17-99): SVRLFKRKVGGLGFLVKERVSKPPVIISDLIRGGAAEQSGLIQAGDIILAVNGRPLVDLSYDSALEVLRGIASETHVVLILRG

syntrophin PDZ, sequence (Q13424 87-170): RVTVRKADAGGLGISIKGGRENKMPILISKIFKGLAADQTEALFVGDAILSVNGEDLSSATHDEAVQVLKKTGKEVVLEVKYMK

One may read the Kd as the concentration at which binding is half-saturated. In the case of syntrophin PDZ (from UniProt Q13424), the dissociation constant Kd is 600 nM.
